In CN108203464A (GENSCRIPT NANJING CO LTD, dated 2018):

Columns and labels:
[1] = molecular target: human PD-1 expressed on cells (human, UniProt Q15116 25-288); test: cell-based or functional assay
[2] = molecular target: T1, 重组人PD-1蛋白 (recombinant human PD-1 protein) (human, UniProt Q15116 25-167, limits assumed); test: competition ELISA: human PD-1 coated, biotin-PD-L1-Fc 0.15 μg/ml as competitor
T1 construct: also called 重组蛋白PD-1

[3] = molecular target: T2, 重组蛋白PD-1-Fc (GenScript, Z03370): human PD-1 extracellular domain fused to human IgG1 Fc (human, UniProt Q15116 25-170); test: indirect ELISA, PD-1-Fc coated at 0.5 μg/ml
T2 construct: extracellular domain; Bought reagent (GenScript Z03370); also called PD-1-Fc重组蛋白; PD-1-Fc融合蛋白; not shown: human IgG1 Fc segment
T2 sequence (Q15116 25-170 limits assumed, one chain of several): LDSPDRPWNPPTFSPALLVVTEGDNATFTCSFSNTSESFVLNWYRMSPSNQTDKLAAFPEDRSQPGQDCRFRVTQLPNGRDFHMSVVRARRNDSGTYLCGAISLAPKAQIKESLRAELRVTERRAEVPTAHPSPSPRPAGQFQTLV

Sequence of human PD-1 expressed on cells (Q15116 25-288): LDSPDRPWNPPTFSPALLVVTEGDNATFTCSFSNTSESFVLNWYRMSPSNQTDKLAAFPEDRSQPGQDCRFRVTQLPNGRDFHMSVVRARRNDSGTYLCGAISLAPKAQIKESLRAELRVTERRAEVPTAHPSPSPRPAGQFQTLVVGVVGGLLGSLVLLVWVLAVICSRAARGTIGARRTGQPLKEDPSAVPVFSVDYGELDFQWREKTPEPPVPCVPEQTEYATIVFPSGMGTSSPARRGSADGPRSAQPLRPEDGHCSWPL
T1 sequence (Q15116 25-167 limits assumed): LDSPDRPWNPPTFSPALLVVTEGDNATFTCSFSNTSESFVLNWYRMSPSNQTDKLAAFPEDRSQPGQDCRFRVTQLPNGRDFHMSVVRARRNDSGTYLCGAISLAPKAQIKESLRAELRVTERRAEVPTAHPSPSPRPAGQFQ

| Binder | IL-2 secretion, mixed lymphocyte reaction (CD4+ T cells + allogeneic dendritic cells), EC50 [1] [μg/ml] | RLU, NFAT-RE reporter effector cells (PD-1) co-cultured with PD-L1 target cells, EC50 [1] [µg/mL] | IC50 [2] [µg/mL] | EC50 [3] [µg/mL] |
| --- | --- | --- | --- | --- |
| 1H10C4D4 (antibody, V domains shown, Detected with goat anti-mouse IgG) VH: EVKLVESGGGLVKPGGSLKLSCAASGFTFSSYDMSWVRQTPDKRLEWVATISGGGSYTYYPDSVKGRFTISRDNAKNNLYLQMSSLRSEDTALYYCGSPYGKYGMEYWGQGTSVTVSS VL: DIVMTQSHKFMSTSVGDRVSITCKASQDVGSVVAWYQQKPGQSPKLLIYWASTRHTGVPDRFTGSGSGTDFTLTISNVQSEDLADYFCQQYSSYPLTFGSGTKLELK | 0.064 | 1.13 | 0.493 | 0.00681 |
| 2E5E4D11 (antibody, V domains shown, I took the two as the same clone (likely a misprint); also called 2E5E4E11) VH: EVKLVESGGVLVQPGGSLKLSCAASGFTFSSYTMSWVRQTPEKRLEWVAYISGGGGDTYYPDTVKGRFTISRDNAKNTLYLQMNSLKSGDTAMYYCARHGYDAACFAYWGQGTLVTVSA VL: DIVMTQSHKFMSTSVGDRVSFTCKASQDVNTAVAWYQQKPGQSPKLLIYWASTRHTGVPDRFTGSGSGTDYTLTISSVQAEDLALYYCQQHYSIPWTVGGGTKLEIK | 0.929 | 1.01 | 0.429 | 0.00465 |
| 154G5A5B7 (antibody, V domains shown) VH: QVQLKESGPGLVAPSQSLSITCTVSGFSLTVYGVNWVRQPPGKGLEWLGMIWGDGTTDYNSALKSRLIINKDNSKSQVFLKMNSLQTDDTARYYCARDDYGTFLYWGQGTLVTVSA VL: DIVMSQSPSSLAVSAGEKVTMSCKSSQSLLNSRTRKNYLAWYQQKPGQSPKLLIFWASTRESGVPDRFTGSVSGTDFTLTISSVQAEDLAVYYCKQSYTLRTFGGGTKLEIK | 1.12 | 1.42 | 0.366 | 0.00872 |
